What was measured:
FcγRI (CD64) (human) = FcγRI (CD64) (human) (UniProt P12314); experiment: SPR, His-captured FcγRI, antibody analyte, 1:1 model, PBST pH 7.4
FcRn (human) = FcRn (human) (UniProt P55899); experiment: SPR, antibody immobilised, FcRn analyte, steady state model, pH 6.0
[1] = molecular target: FcγRIIb/c (CD32b/c) (human) (UniProt P31994); experiment: SPR, His-captured FcγRIIb/c, antibody analyte, steady state model, HBS-EP+
[2] = molecular target: FcγRIIIa F158 (CD16a) (human) (UniProt P08637); experiment: SPR, His-captured FcγRIIIa F158, antibody analyte, steady state model, HBS-EP+ (FIG. 31)
FcγRIIIb (CD16b) (human) = FcγRIIIb (CD16b) (human) (UniProt O75015); experiment: SPR, His-captured FcγRIIIb (CD16b), antibody analyte, steady state model, HBS-EP+ (legend of FIG. 32; receptor printed as FcγRIIIa)
[3] = molecular target: Human EpCAM expressed on cells (CHO-hEpCAM, HCT116) (human) (UniProt P16422); experiment: flow cytometry of HCT116 cells stained with PE anti-hEpCAM clone 9C4, quantified with the QuantiBrite PE bead standard curve
[4] = molecular target: Human EpCAM expressed on cells (CHO-hEpCAM, HCT116) (human) (UniProt P16422); experiment: flow cytometry of CHO-hEpCAM cells stained with PE anti-hEpCAM clone 9C4, quantified with the QuantiBrite PE bead standard curve
[5] = molecular target: Cynomolgus EpCAM expressed on CHO cells (cynomolgus monkey); experiment: flow cytometry of CHO-cynoEpCAM cells stained with PE anti-hEpCAM clone 9C4, quantified with the QuantiBrite PE bead standard curve
Cynomolgus EpCAM expressed on CHO cells (cynomolgus monkey), sequence (Q1WER1 24-314): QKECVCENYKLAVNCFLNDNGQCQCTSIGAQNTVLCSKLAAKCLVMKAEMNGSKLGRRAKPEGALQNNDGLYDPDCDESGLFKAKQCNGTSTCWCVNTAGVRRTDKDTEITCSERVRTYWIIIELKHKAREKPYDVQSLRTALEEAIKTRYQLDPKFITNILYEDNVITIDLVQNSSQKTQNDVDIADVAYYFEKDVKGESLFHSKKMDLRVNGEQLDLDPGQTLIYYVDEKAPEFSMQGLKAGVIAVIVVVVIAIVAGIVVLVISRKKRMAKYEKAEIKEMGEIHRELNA

Human EpCAM expressed on cells (CHO-hEpCAM, HCT116) (human), sequence (P16422 24-314): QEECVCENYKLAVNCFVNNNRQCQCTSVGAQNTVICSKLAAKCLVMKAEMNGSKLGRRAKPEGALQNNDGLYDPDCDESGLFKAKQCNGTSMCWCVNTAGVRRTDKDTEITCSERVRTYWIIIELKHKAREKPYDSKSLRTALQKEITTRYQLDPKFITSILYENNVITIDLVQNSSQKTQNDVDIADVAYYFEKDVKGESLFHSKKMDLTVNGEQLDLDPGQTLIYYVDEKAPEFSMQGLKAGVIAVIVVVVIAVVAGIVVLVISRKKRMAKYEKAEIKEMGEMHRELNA
FcγRIIb/c (CD32b/c) (human), sequence (P31994 43-217): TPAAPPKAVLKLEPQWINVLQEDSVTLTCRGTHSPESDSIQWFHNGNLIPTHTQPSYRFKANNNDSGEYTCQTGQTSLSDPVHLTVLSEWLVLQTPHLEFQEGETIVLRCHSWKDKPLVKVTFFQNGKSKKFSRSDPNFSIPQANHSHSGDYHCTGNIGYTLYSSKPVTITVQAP
FcγRIIIa F158 (CD16a) (human), sequence (P08637 17-208): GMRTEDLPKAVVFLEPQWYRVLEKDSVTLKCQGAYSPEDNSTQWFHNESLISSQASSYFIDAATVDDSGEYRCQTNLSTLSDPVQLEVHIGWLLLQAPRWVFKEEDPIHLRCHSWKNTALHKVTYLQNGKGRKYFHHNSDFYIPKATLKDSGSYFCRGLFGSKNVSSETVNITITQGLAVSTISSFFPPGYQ
FcγRI (CD64) (human), sequence (P12314 16-292): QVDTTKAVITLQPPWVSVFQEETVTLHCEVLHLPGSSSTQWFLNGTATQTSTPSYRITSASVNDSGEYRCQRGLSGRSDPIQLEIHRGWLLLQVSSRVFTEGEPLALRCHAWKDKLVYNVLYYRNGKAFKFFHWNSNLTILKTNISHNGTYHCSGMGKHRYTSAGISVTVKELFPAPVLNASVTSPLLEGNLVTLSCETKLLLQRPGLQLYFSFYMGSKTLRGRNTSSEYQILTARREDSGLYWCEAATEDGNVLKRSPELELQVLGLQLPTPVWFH
FcγRIIIb (CD16b) (human), sequence (O75015 17-200 limits assumed): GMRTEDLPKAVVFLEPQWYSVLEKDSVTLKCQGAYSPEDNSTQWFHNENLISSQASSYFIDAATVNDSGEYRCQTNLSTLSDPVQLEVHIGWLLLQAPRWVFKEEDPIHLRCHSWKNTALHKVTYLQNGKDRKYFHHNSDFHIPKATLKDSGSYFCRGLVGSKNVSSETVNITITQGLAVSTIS

Kd (FcγRI (CD64) (human)) [nM]	Kd (FcRn (human)) [nM]	Kd [1] [µM]	Kd [2] [nM]	Kd (FcγRIIIb (CD16b) (human)) [µM]	Antibody per cell (Antibody per cell) [3]	Antibody per cell (Antibody per cell) [4]	Antibody per cell (Antibody per cell) [5]	Substance
1.18	366	4.2	860	6.5				IgG1-ctrl mAb (antibody)
					412000	194000	231000	Mouse anti-hEpCAM conjugated to PE, clone 9C4 (antibody)
